Reference: US20240041978A1, “LA PROTEIN AS A NOVEL REGULATOR OF OSTEOCLASTOGENESIS” (The U.S.A., as Represented by the Secretary, Department of …, priority 2021, published 2024)

Assays:
[1] = target: T1, La protein (Lupus autoantigen), native, in lysates of fusing human osteoclasts (human, UniProt P05455 1-408, limits assumed); assay: co-immunoprecipitation with α-La on magnetic beads from DTSSP-crosslinked osteoclast lysates, immunoblot
T1 construct: Endogenous La from monocyte-derived human osteoclasts 3 days post-RANKL; also called native La; SSB
T1 sequence: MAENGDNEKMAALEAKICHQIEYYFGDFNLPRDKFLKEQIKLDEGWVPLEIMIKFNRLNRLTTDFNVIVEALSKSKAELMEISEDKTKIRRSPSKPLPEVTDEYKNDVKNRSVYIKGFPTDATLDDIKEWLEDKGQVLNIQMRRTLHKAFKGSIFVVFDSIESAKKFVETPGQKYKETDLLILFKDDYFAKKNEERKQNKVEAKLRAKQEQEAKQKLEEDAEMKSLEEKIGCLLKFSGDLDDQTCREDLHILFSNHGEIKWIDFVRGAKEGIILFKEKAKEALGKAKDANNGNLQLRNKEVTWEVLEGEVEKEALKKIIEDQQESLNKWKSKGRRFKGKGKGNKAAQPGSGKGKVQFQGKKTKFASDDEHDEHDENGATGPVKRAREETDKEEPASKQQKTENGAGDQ

[2] = tested on: human, monocyte-derived osteoclasts; assay: Bone resorption assay (fluoresceinamine-labeled chondroitin sulfate on calcium phosphate-coated plates); type: cell-based; conditions: for bone resorption: overexpression, normalized to empty plasmid
Protocol: There is a relationship between osteoclast fusion and bone resorption (Makris and Saffar, Arch Oral Biol 27, 965-969, doi:10.1016/0003-9969(82)90104-2 (1982); Piper et al., Anat Embryol (Berl) 186, 291-299, doi:10.1007/BF00185977 (1992); Moller et al., Int J Mol Sci 21, doi:10.3390/ijms21176368 (2020)). It was hypothesized that by regulating osteoclast size, La also regulates bone resorption. This hypothesis was evaluated by differentiating osteoclasts on fluoresceinated calcium phosphate, a biomimetic of bone, and assessed osteoclast-dependent bone resorption by the release of fluorescein into the media (FIG. 5A). […] Overexpression of La 1-375 promoted bone resorption, while the uncleavable La mutant, D371,374A, had no effect (FIG. 5B).
Bone Resorption: Bone resorption was evaluated using bone resorption assay kits from Cosmo Bio USA according to the manufacturer's instructions. Briefly, fluoresceinamine-labeled chondroitin sulfate was used to label 24-well, calcium phosphate-coated plates. Human, monocyte-derived osteoclasts were differentiated as described above, using alpha MEM without phenol red. Media were collected at 4-5 days post RANKL addition, and fluorescence intensity within the media was evaluated as recommended by the manufacture.

[3] = tested on: human monocyte-derived osteoclasts; assay: Osteoclast fusion assay (number of fusion events, fluorescence microscopy); type: cell-based; conditions: for osteoclast fusion (fusion events in syncytia with 3+ nuclei): overexpression from expression plasmid vs empty plasmid, human osteoclasts; for formation of multinucleated syncytia (osteoclast fusion): recombinant protein ~40 nM added end of day 2 post-RANKL, overnight
Protocol: Osteoclasts: Elutriated monocytes from healthy donors were obtained. Cells were plated at 2.9×10^5 per cm^2 in 35 mm dishes with polymer coverslip bottoms (Ibidi #81156) for imaging or 35 mm or 10 cm dishes for biochemical experiments in complete media [α-MEM supplemented with 10% Fetal Bovine Serum (FBS) and penicillin-streptomycin-L-glutamine (Gibco Invitrogene #12571063; #26140079 and #10378016, respectively)]. Monocytes were differentiated to M2 macrophages in the presence of 100 ng/ml M-CSF for 6 days and then differentiated with 100 ng/ml M-CSF and 100 ng/ml RANKL for 3 days unless indicated otherwise. RAW 264.7 cells (ATCC, Manassas, VA, #TIB-71) were maintained in DMEM supplemented with 10% FBS to a maximum of 8 passages. RAW 264.7 cells were differentiated to osteoclasts in the presence of 100 ng/ml murine RANKL for 5 days. To separate unfused mononucleated and fused, multinucleated RAW 264.7 cells into separate fractions, advantage was taken of the much stronger adherence of multinucleated cells to culture dish plastic. After washing in PBS, mixed RAW cultures (following RANKL differentiation) were left in Ca^2+ and Mg^2+ free PBS for 10 minutes at room temperature. Culture dishes were then tapped on the lab bench and a large portion of unfused, mononucleated RAW cells were released, and these released cells were collected via centrifugation. This process was repeated 2-4 times until dishes were left with a population of primarily fused, multinucleated syncytia. Mononucleated and multinucleated cell fractions were then processed for biochemical or imaging experiments as described below.
Constructs & Recombinant proteins & Transfection: Recombinant La 1-408, 1-375, 1-375 Q20A_Y24A_D33I, 1-187 and 188-375 were amplified with primers designed with overlapping sequences and inserted between NdeI/HindIII in the V78 pET28A E. coli expression vector, adding to each a N-terminal 6×his affinity tag. La 1-408 was expressed as a recombinant protein in E. coli and purified using IMAC columns by SD Biosciences (San Diego, CA). The remaining constructs were transformed into BL2 (DE3) chemically competent E. coli (Thermo Fisher Scientific) and protein expression was induced with IPTG. Cells were lysed with Bugbuster (Sigma), and 6×his-La proteins were affinity purified using HisPur Cobalt Spin columns (Thermo Fisher Scientific), each according to the manufacturer's instructions. Endotoxin contaminates were depleted from affinity purified 6×his-La proteins using Pierce high-capacity endotoxin removal columns (Thermo Fisher Scientific), according to the manufacturer's instructions. Proteins were then sterile filtered, aliquoted and kept at −80 C.
Plasmids were introduced into primary osteoclasts at day 2 of RANKL stimulation via jetPRIME (Polyplus Transfection). FLAG-La 1-408, FLAG-La 1-375 and FLAG-La 1-375 Q20A_Y24A_D33I plasmids were a gift of the Maraia Lab (NICHD). Briefly, SSB (UniProt P05455) was inserted between HindIII and BamHI the pFLAG-CMV2 vector (Sigma). “Uncleavable” La was produced by taking the FLAG-La 1-408 plasmid and making two point mutations at amino acids D371A and D374A, abrogating the caspase cleavage sites at the C-terminal region of the protein (Emory Integrated Genomics Core). siRNA were introduced into primary osteoclasts after 1 day of RANKL stimulation via Lipofectamine RNAiMAX (Thermo Fisher Scientific). Non-targeted (Cat #4390843) and SSB-targeted (Cat #4392420_ID:s13469) siRNA were introduced at a concentration of 5 ng/ml (Silencer Select, Ambion).
Fusion Assays: Osteoclast fusion in the culture systems was evaluated by fluorescence microscopy (Verma et al., J Biol Chem 293, 254-270, doi:10.1074/jbc.M117.809681 (2018)). Briefly, cells were fixed with 4% paraformaldehyde at timepoints of interest, permeabilized with 0.1% TRITON™ X-100 and blocked with 5% FBS. Cells were then stained with phallodin-ALEXAFLURO®488 and Hoechst to label cells' actin cytoskeleton and nuclei, respectively. […]

[4] = tested on: RAW 264.7 derived, murine osteoclasts; assay: Osteoclast fusion assay in RAW 264.7 derived osteoclasts; type: cell-based; conditions: overexpression from expression plasmid vs empty plasmid
Protocol: Osteoclasts: Elutriated monocytes from healthy donors were obtained. Cells were plated at 2.9×10^5 per cm^2 in 35 mm dishes with polymer coverslip bottoms (Ibidi #81156) for imaging or 35 mm or 10 cm dishes for biochemical experiments in complete media [α-MEM supplemented with 10% Fetal Bovine Serum (FBS) and penicillin-streptomycin-L-glutamine (Gibco Invitrogene #12571063; #26140079 and #10378016, respectively)]. Monocytes were differentiated to M2 macrophages in the presence of 100 ng/ml M-CSF for 6 days and then differentiated with 100 ng/ml M-CSF and 100 ng/ml RANKL for 3 days unless indicated otherwise. RAW 264.7 cells (ATCC, Manassas, VA, #TIB-71) were maintained in DMEM supplemented with 10% FBS to a maximum of 8 passages. […]
Fusion Assays: Osteoclast fusion in the culture systems was evaluated by fluorescence microscopy (Verma et al., J Biol Chem 293, 254-270, doi:10.1074/jbc.M117.809681 (2018)). […] Osteoclast fusion efficiency was evaluated as the number of fusion events between cells in these images, as described previously. Since regardless of the sequence of fusion events, the number of cell-to-cell fusion events required to generate syncytium with N nuclei is always equal to N−1, the fusion number index was calculated as Σ(Ni−1)=Ntotal−Nsyn, where Ni=the number of nuclei in individual syncytia and Nsyn=the total number of syncytia. […]

B1: Annexin A1 (Anx A1), native, in fusing human osteoclasts (other, UniProt P04083 2-346, looked up)
chain: AMVSEFLKQAWFIENEEQEYVQTVKSSKGGPGSAVSPYPTFNPSSDVAALHKAIMVKGVDEATIIDILTKRNNAQRQQIKAAYLQETGKPLDETLKKALTGHLEEVVLALLKTPAQFDADELRAAMKGLGTDEDTLIEILASRTNKEIRDINRVYREELKRDLAKDITSDTSGDFRNALLSLAKGDRSEDFGVNEDLADSDARALYEAGERRKGTDVNVFNTILTTRSYPQLRRVFQKYTKYSKHDMNKVLDLELKGDIEKCLTAIVKCATSKPAFFAEKLHQAMKGVGTRHKALIRIMVSRSEIDMNDIKAFYQKMYGISLCQAILDETKGDYEKILVALCGGN
B1: no binding [1].

B2: D371A,D374A La: uncleavable mutant of FL La, caspase cleavage sites disrupted, overexpressed from plasmid (protein, UniProt P05455 1-408, looked up, variant D371A D374A)
chain: MAENGDNEKMAALEAKICHQIEYYFGDFNLPRDKFLKEQIKLDEGWVPLEIMIKFNRLNRLTTDFNVIVEALSKSKAELMEISEDKTKIRRSPSKPLPEVTDEYKNDVKNRSVYIKGFPTDATLDDIKEWLEDKGQVLNIQMRRTLHKAFKGSIFVVFDSIESAKKFVETPGQKYKETDLLILFKDDYFAKKNEERKQNKVEAKLRAKQEQEAKQKLEEDAEMKSLEEKIGCLLKFSGDLDDQTCREDLHILFSNHGEIKWIDFVRGAKEGIILFKEKAKEALGKAKDANNGNLQLRNKEVTWEVLEGEVEKEALKKIIEDQQESLNKWKSKGRRFKGKGKGNKAAQPGSGKGKVQFQGKKTKFASDDEHAEHAENGATGPVKRAREETDKEEPASKQQKTENGAGDQ
modifications: full-length
notes: uncleavable mutant of FL La, caspase cleavage sites disrupted, overexpressed from plasmid
In the case of B2, the bone resorption [2] is reported as “no effect” and the “osteoclast fusion (fusion events in syncytia with 3+ nuclei)” value [3] is reported as “no effect”.

B3: La 1-375: amino acids 1-375 of human La lacking NLS; recombinant protein or overexpressed from FLAG plasmid (protein, listed as Homo sapiens)
chain: MAENGDNEKMAALEAKICHQIEYYFGDFNLPRDKFLKEQIKLDEGWVPLEIMIKFNRLNRLTTDFNVIVEALSKSKAELMEISEDKTKIRRSPSKPLPEVTDEYKNDVKNRSVYIKGFPTDATLDDIKEWLEDKGQVLNIQMRRTLHKAFKGSIFVVFDSIESAKKFVETPGQKYKETDLLILFKDDYFAKKNEERKQNKVEAKLRAKQEQEAKQKLEEDAEMKSLEEKIGCLLKFSGDLDDQTCREDLHILFSNHGEIKWIDFVRGAKEGIILFKEKAKEALGKAKDANNGNLQLRNKEVTWEVLEGEVEKEALKKIIEDQQESLNKWKSKGRRFKGKGKGNKAAQPGSGKGKVQFQGKKTKFASDDEHDEHDE
B3 was tested, and the “osteoclast fusion (fusion events in syncytia with 3+ nuclei)” value [4] was “greatly promoted”, the osteoclast bone resorption ([2]; 40 nM recombinant protein, extracellular addition, vs PBS) was “dramatically increased” and the bone resorption [2] was “promoted”. For the same molecule, the “osteoclast fusion (fusion events in syncytia with 3+ nuclei)” value [3] was “greatly promoted” and the “formation of multinucleated syncytia (osteoclast fusion)” value [3] was “significantly promoted”.

B4: La 1-375 RNAΔ: La 1-375 with three point mutations impairing La domain RNA binding (protein, UniProt P05455 1-375, looked up, variant Q20A Y24A D33I)
chain: MAENGDNEKMAALEAKICHAIEYAFGDFNLPRIKFLKEQIKLDEGWVPLEIMIKFNRLNRLTTDFNVIVEALSKSKAELMEISEDKTKIRRSPSKPLPEVTDEYKNDVKNRSVYIKGFPTDATLDDIKEWLEDKGQVLNIQMRRTLHKAFKGSIFVVFDSIESAKKFVETPGQKYKETDLLILFKDDYFAKKNEERKQNKVEAKLRAKQEQEAKQKLEEDAEMKSLEEKIGCLLKFSGDLDDQTCREDLHILFSNHGEIKWIDFVRGAKEGIILFKEKAKEALGKAKDANNGNLQLRNKEVTWEVLEGEVEKEALKKIIEDQQESLNKWKSKGRRFKGKGKGNKAAQPGSGKGKVQFQGKKTKFASDDEHDEHDE
For B4, the “osteoclast fusion (fusion events in syncytia with 3+ nuclei)” value [4] was “promoted formation of multinucleated osteoclasts as robustly as wild type La 1-375” and the “formation of multinucleated syncytia (osteoclast fusion)” value [3] was “significantly promoted”.

B5: Annexin A4 (Anx A4), native, in fusing human osteoclasts (other, UniProt P09525 2-319, looked up)
chain: ATKGGTVKAASGFNAMEDAQTLRKAMKGLGTDEDAIISVLAYRNTAQRQEIRTAYKSTIGRDLIDDLKSELSGNFEQVIVGMMTPTVLYDVQELRRAMKGAGTDEGCLIEILASRTPEEIRRISQTYQQQYGRSLEDDIRSDTSFMFQRVLVSLSAGGRDEGNYLDDALVRQDAQDLYEAGEKKWGTDEVKFLTVLCSRNRNHLLHVFDEYKRISQKDIEQSIKSETSGSFEDALLAIVKCMRNKSAYFAEKLYKSMKGLGTDDNTLIRVMVSRAEIDMLDIRAHFKRLYGKSLYSFIKGDTSGDYRKVLLVLCGGDD
B5: no binding [1].
